According to paper PMC10610913, “Saturation mutagenesis of α-synuclein reveals monomer fold that modulates aggregation” (Science Advances, 2023):

Biological target: the molecule itself
Experiment: FRET or BRET; HEK293T biosensor cells co-expressing the CFP and the YFP fusion of one aSyn variant, seeded with increasing amounts of sonicated recombinant full-length aSyn(WT) fibrils with Lipofectamine 2000, 48 h, CFP-YFP FRET by flow cytometry, normalized to aSyn(WT) with 100 nM fibrils

B1: aSyn amino acids 35 to 110, CFP/YFP (domain or fragment)
chain: not shown
- fold sensitivity of the biosensor against full-length WT aSyn: ≥ 4 fold
